Key:
[1] = biological target: the molecule itself; assay: SEC + other: dynamic light scattering; Hsp90αC+ at 1.0 mg/ml and FL Hsp90α at 2.1 mg/ml for DLS, 20 mM HEPES pH 7.2, 150 mM NaCl, 25°C; without inhibitors
[2] = biological target: the molecule itself; assay: crystal structure; MDCC-labelled Hsp90αMC crystallised in 0.1 M succinic acid pH 6.5, 12% PEG 3350, 20 mM calcium chloride; 3.5 Å; hexamer through crystallographic symmetry
[3] = biological target: the molecule itself; assay: SEC; size-exclusion chromatography of the purified protein, 20 mM HEPES Na pH 7.2, 150 mM NaCl
[4] = biological target: the molecule itself; assay: dynamic light scattering; 3 mg/ml Hsp90αMC in 20 mM HEPES pH 7.2, 150 mM NaCl, 25°C; without or with 0.5 mM inhibitors (chlorobiocin, derrubone, coumermycin A1 or MDCC; 5% DMSO); dimers to hexamer

B1: Hsp90α_23–699_E47A (FL Hsp90α) (domain or fragment)
chain: not shown
notes: Hsp90α, human, residues 23-699 with E47A; N-terminal truncation (printed as Δ23) and C-terminal tail removed; also called full-length (FL) Hsp90α; source: E. coli, purified (same procedure as for Hsp90αMC); not shown: 6xHis, N-terminal, cleaved
stoichiometry N [1]: 6

B2: MDCC–Hsp90αMC (Hsp90α 293–699 covalently linked to MDCC at Cys374) (domain or fragment)
chain: not shown
modifications: MDCC {7-diethylamino-3-[N-(2-maleimidoethyl)carbamoyl]coumarin} covalently linked to Cys374
notes: Hsp90α, human, residues 293-699 (middle and C-terminal domains), labelled with MDCC at Cys374; Three molecules in the asymmetric unit; the hexamer is formed through crystallographic symmetry; also called MDCC-labeled Hsp90αMC; source: E. coli, purified; 0.2 mM Hsp90αMC incubated with 0.5 mM MDCC on ice for 30 min, supernatant used; not shown: 6xHis, N-terminal, cleaved
stoichiometry N [2]: 6

B3: Hsp90α_293–699 (Hsp90αMC), middle and C-terminal domains of human Hsp90α (domain or fragment)
chain: not shown
notes: Hsp90α (90 kDa heat-shock protein alpha), human, residues 293-699 (middle and C-terminal domains); TEV site between the tag and the protein; also called Hsp90α MD and CTD; apo Hsp90αMC; source: E. coli, purified (Ni-NTA, TEV cleavage, second Ni-NTA, size-exclusion chromatography); not shown: 6xHis, N-terminal, cleaved
stoichiometry N [3]: 2
stoichiometry N [4]: 6

B4: Hsp90α_433–696 (Hsp90αC+) (domain or fragment)
chain: not shown
notes: Hsp90α, human, residues 433-696; The results speak of 'the CTD'; also called the CTD; source: E. coli, purified (same procedure as for Hsp90αMC); not shown: 6xHis, N-terminal, cleaved
stoichiometry N [1]: 4

— article PMC9063849, “Crystal structure of the middle and C-terminal domains of Hsp90α labeled with a coumarin derivative reveals a potential allosteric binding site as a drug target” (Acta Crystallographica. Section D, Structural Biology, 2022)
